According to patent US20160264649A1:

Experiments:
Test in all cases: cell-based or functional assay
[1] = molecular target: HIV-1 92WR009 Env (HIV-1)
[2] = molecular target: HIV-1 MGRM-A-007 Env (HIV-1)
[3] = molecular target: HIV-1 MGRM-A-011 Env (HIV-1)
[4] = molecular target: HIV-1 Env of isolate MG RM-C-026 (subtype C) (HIV-1)
[5] = molecular target: HIV-1 MGRM-AG-008 Env (HIV-1)
[6] = molecular target: HIV-1 MGRM-A-006 Env (HIV-1)
[7] = molecular target: HIV-1 92WR026 Env (HIV-1)
[8] = molecular target: HIV-1 MGRM-A-002 Env (HIV-1)
[9] = molecular target: HIV-1 93UG077 Env (HIV-1)
[10] = molecular target: HIV-1 92UG031 Env (HIV-1)
[11] = molecular target: HIV-1 MGRM-A-003 Env (HIV-1)
[12] = molecular target: HIV-1 MGRM-A-005 Env (HIV-1)
[13] = molecular target: HIV-1 92WR024 Env (HIV-1)
[14] = molecular target: HIV-1 MGRM-AE-004 Env (HIV-1)
[15] = molecular target: HIV-1 MGRM-AE-006 Env (HIV-1)
[16] = molecular target: HIV-1 92WR020 Env (HIV-1)
[17] = molecular target: HIV-1 MGRM-A-013 Env (HIV-1)
[18] = molecular target: HIV-1 Env of isolate MG RM-C-025 (subtype C) (HIV-1)
HIV-1 VLGCA1 Env (HIV-1) = molecular target: HIV-1 VLGCA1 Env (HIV-1)
[19] = molecular target: HIV-1 MGRM-A-009 Env (HIV-1)
[20] = molecular target: HIV-1 MGRM-AE-003 Env (HIV-1)
[21] = molecular target: HIV-1 Env of isolate MG RM-C-024 (subtype C) (HIV-1)
[22] = molecular target: HIV-1 Env of isolate MG RM-C-022 (subtype C) (HIV-1)
[23] = molecular target: HIV-1 MGRM-AG-003 Env (HIV-1)
[24] = molecular target: HIV-1 94UG103 Env (HIV-1)
[25] = molecular target: HIV-1 MGRM-AG-012 Env (HIV-1)
[26] = molecular target: HIV-1 Env of isolate MG RM-C-020 (subtype C) (HIV-1)
[27] = molecular target: HIV-1 MGRM-AG-001 Env (HIV-1)
[28] = molecular target: HIV-1 Env of isolate MG RM-C-027 (subtype C) (HIV-1)
[29] = molecular target: HIV-1 Env of isolate MG RM-C-028 (subtype C) (HIV-1)
[30] = molecular target: HIV-1 92WR021 Env (HIV-1)
[31] = molecular target: HIV-1 MGRM-AE-008 Env (HIV-1)
[32] = molecular target: HIV-1 MGRM-A-010 Env (HIV-1)
[33] = molecular target: HIV-1 MGRM-AE-007 Env (HIV-1)
[34] = molecular target: HIV-1 94KE105 Env (HIV-1)
[35] = molecular target: HIV-1 MGRM-A-012 Env (HIV-1)
[36] = molecular target: HIV-1 MGRM-AG-002 Env (HIV-1)
[37] = molecular target: HIV-1 MGRM-A-004 Env (HIV-1)
[38] = molecular target: HIV-1 92RW008 Env (HIV-1)
[39] = molecular target: HIV-1 MGRM-AE-001 Env (HIV-1)
[40] = molecular target: HIV-1 92UG037 Env (HIV-1)
[41] = molecular target: HIV-1 MGRM-A-008 Env (HIV-1)
[42] = molecular target: HIV-1 92TH021 Env (HIV-1)
[43] = molecular target: HIV-1 MGRM-AG-005 Env (HIV-1)
[44] = molecular target: HIV-1 MGRM-AE-002 Env (HIV-1)
[45] = molecular target: HIV-1 MGRM-AG-013 Env (HIV-1)
[46] = molecular target: HIV-1 MGRM-AG-006 Env (HIV-1)
[47] = molecular target: HIV-1 MGRM-AG-009 Env (HIV-1)
[48] = molecular target: HIV-1 Env of isolate MG RM-C-019 (subtype C) (HIV-1)
[49] = molecular target: HIV-1 93WR029 Env (HIV-1)
[50] = molecular target: HIV-1 MGRM-A-001 Env (HIV-1)
HIV-1 CMU02 Env (HIV-1) = molecular target: HIV-1 CMU02 Env (HIV-1)
[51] = molecular target: HIV-1 MGRM-A-014 Env (HIV-1)
[52] = molecular target: HIV-1 MGRM-AE-005 Env (HIV-1)
[53] = molecular target: HIV-1 MGRM-AG-011 Env (HIV-1)
[54] = molecular target: HIV-1 Env of isolate MG RM-C-023 (subtype C) (HIV-1)

5329_C19 (PGT-136) (antibody), sequence (VH): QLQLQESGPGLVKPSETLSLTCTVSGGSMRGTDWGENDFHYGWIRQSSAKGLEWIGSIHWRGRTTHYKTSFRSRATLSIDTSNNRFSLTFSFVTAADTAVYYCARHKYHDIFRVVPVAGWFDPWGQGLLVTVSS
5329_C19 (PGT-136) (antibody), sequence (VL): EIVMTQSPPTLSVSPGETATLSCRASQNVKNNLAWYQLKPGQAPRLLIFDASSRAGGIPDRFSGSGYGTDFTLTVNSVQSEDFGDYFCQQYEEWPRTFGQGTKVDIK

5343_B08 (PGT-135) (antibody)
IC50 [1]: > 50 µg/mL
IC50 [2]: > 50 µg/mL
IC50 [3]: > 50 µg/mL
IC50 [4]: 0.004 µg/mL
IC50 [5]: > 50 µg/mL
IC50 [6]: > 50 µg/mL
IC50 [7]: 0.068 µg/mL
IC50 [8]: > 50 µg/mL
IC50 [9]: > 50 µg/mL
IC50 [10]: > 50 µg/mL
IC50 [11]: > 50 µg/mL
IC50 [12]: > 50 µg/mL
IC50 [13]: > 50 µg/mL
IC50 [14]: > 50 µg/mL
IC50 [15]: > 50 µg/mL
IC50 [16]: 0.067 µg/mL
IC50 [17]: > 50 µg/mL
IC50 [18]: > 50 µg/mL
IC50 (HIV-1 VLGCA1 Env (HIV-1)): > 50 µg/mL
IC50 [19]: > 50 µg/mL
IC50 [20]: > 50 µg/mL
IC50 [21]: > 50 µg/mL
IC50 [22]: > 50 µg/mL
IC50 [23]: > 50 µg/mL
IC50 [24]: > 50 µg/mL
IC50 [25]: 41.9 µg/mL
IC50 [26]: > 50 µg/mL
IC50 [27]: > 50 µg/mL
IC50 [28]: > 50 µg/mL
IC50 [29]: 1.47 µg/mL
IC50 [30]: > 50 µg/mL
IC50 [31]: > 50 µg/mL
IC50 [32]: > 50 µg/mL
IC50 [33]: > 50 µg/mL
IC50 [34]: 0.063 µg/mL
IC50 [35]: > 50 µg/mL
IC50 [36]: > 50 µg/mL
IC50 [37]: > 50 µg/mL
IC50 [38]: 1.42 µg/mL
IC50 [39]: > 50 µg/mL
IC50 [40]: 3.67 µg/mL
IC50 [41]: > 50 µg/mL
IC50 [42]: > 50 µg/mL
IC50 [43]: > 50 µg/mL
IC50 [44]: > 50 µg/mL
IC50 [45]: > 50 µg/mL
IC50 [46]: 17.9 µg/mL
IC50 [47]: > 50 µg/mL
IC50 [48]: 0.264 µg/mL
IC50 [49]: > 50 µg/mL
IC50 [50]: > 50 µg/mL
IC50 (HIV-1 CMU02 Env (HIV-1)): > 50 µg/mL
IC50 [51]: 0.636 µg/mL
IC50 [52]: > 50 µg/mL
IC50 [53]: > 50 µg/mL
IC50 [54]: 0.061 µg/mL

5329_C19 (PGT-136) (antibody)
IC50 [1]: > 50 µg/mL
IC50 [2]: > 50 µg/mL
IC50 [3]: > 50 µg/mL
IC50 [4]: 0.006 µg/mL
IC50 [5]: > 50 µg/mL
IC50 [6]: > 50 µg/mL
IC50 [7]: > 50 µg/mL
IC50 [8]: > 50 µg/mL
IC50 [9]: > 50 µg/mL
IC50 [10]: > 50 µg/mL
IC50 [11]: > 50 µg/mL
IC50 [12]: > 50 µg/mL
IC50 [13]: > 50 µg/mL
IC50 [14]: > 50 µg/mL
IC50 [15]: > 50 µg/mL
IC50 [16]: 2.33 µg/mL
IC50 [17]: > 50 µg/mL
IC50 [18]: > 50 µg/mL
IC50 (HIV-1 VLGCA1 Env (HIV-1)): > 50 µg/mL
IC50 [19]: > 50 µg/mL
IC50 [20]: > 50 µg/mL
IC50 [21]: > 50 µg/mL
IC50 [22]: > 50 µg/mL
IC50 [23]: > 50 µg/mL
IC50 [24]: > 50 µg/mL
IC50 [25]: > 50 µg/mL
IC50 [26]: > 50 µg/mL
IC50 [27]: > 50 µg/mL
IC50 [28]: > 50 µg/mL
IC50 [29]: 33.7 µg/mL
IC50 [30]: > 50 µg/mL
IC50 [31]: > 50 µg/mL
IC50 [32]: > 50 µg/mL
IC50 [33]: > 50 µg/mL
IC50 [34]: > 50 µg/mL
IC50 [35]: > 50 µg/mL
IC50 [36]: > 50 µg/mL
IC50 [37]: > 50 µg/mL
IC50 [38]: > 50 µg/mL
IC50 [39]: > 50 µg/mL
IC50 [40]: > 50 µg/mL
IC50 [41]: > 50 µg/mL
IC50 [42]: > 50 µg/mL
IC50 [43]: > 50 µg/mL
IC50 [44]: > 50 µg/mL
IC50 [45]: > 50 µg/mL
IC50 [46]: 29.1 µg/mL
IC50 [47]: > 50 µg/mL
IC50 [48]: 20.1 µg/mL
IC50 [49]: > 50 µg/mL
IC50 [50]: > 50 µg/mL
IC50 (HIV-1 CMU02 Env (HIV-1)): > 50 µg/mL
IC50 [51]: > 50 µg/mL
IC50 [52]: > 50 µg/mL
IC50 [53]: > 50 µg/mL
IC50 [54]: 3.2 µg/mL
